In the Immune Epitope Database (IEDB):

Tests used:
Assay in all cases: IEDB peptide-MHC binding, purified MHC/competitive/radioactivity; filed as Kd, often an IC50 or EC50 that approximates it; ≥ and ≤ were set here for values at or beyond the usual limits of such assays
[1] = biological target: HLA-A*33:01
[2] = biological target: HLA-A*31:01
[3] = biological target: HLA-A*68:01
[4] = biological target: HLA-A*11:01
[5] = biological target: HLA-A*03:01
[6] = source organism: Vaccinia virus WR
[7] = source organism: Dengue virus 3 Martinique/1243/1999
[8] = source organism: SARS coronavirus Tor2
[9] = source organism: Dengue virus 4 Philippines/H241/1956
[10] = source organism: Mammarenavirus brazilense
[11] = source organism: Dengue virus 1 Brazil/97-11/1997
[12] = source organism: Dengue virus 2 Jamaica/1409/1983
[13] = source organism: Mammarenavirus guanaritoense

Sequence | Kd [1, 6] [µM] | Kd [2, 6] [µM] | Kd [3, 6] [µM] | Kd [4, 6] [µM] | Kd [5, 6] [µM] | also measured
IIGHIGHHY | ≥ 77.7 | ≥ 77.9 | ≥ 23.1 | 4.62 | 6.39 | –
IILAALFMY | 13.3 | 11.4 | ≥ 55.7 | 0.000307 | 0.0205 | –
ILFEEVMRGK | – | – | – | – | – | Kd [5, 7]: 0.00896 µM
ITKEIKNRDK | ≥ 35.8 | ≥ 10 | 2.21 | 18.4 | 7.89 | –
IVPFWITAIY | – | – | – | – | – | Kd [1, 8]: 2.36 µM; Kd [2, 8]: 1.32 µM; Kd [3, 8]: 0.178 µM; Kd [4, 8]: 1.02 µM; Kd [5, 8]: 0.071 µM
KIKQDVRDK | ≥ 77.7 | 9.94 | ≥ 24.9 | 19.8 | 0.241 | –
KKKNPRLCTR | – | – | – | – | – | Kd [2, 9]: 1.04 µM
KMAVEVGSIR | 13.7 | 1.67 | 0.0958 | ≥ 21.1 | 4.54 | –
KTNSTVDVR | 13.3 | 0.011 | 0.0199 | 0.0881 | 1.88 | –
KVLAARLKR | 18.8 | 0.663 | 0.00607 | 0.158 | 0.633 | –
LFFTTTLFLH | – | – | – | – | – | Kd [1, 10]: 0.191 µM; Kd [2, 10]: 0.232 µM; Kd [3, 10]: 0.445 µM; Kd [4, 10]: 4.12 µM; Kd [5, 10]: 0.771 µM
LIHDNIMYTY | ≥ 32.3 | 4.16 | 0.566 | 0.238 | 0.0453 | –
LILAEYIRHR | 5.39 | 0.0804 | 1.73 | 0.738 | 2.19 | –
LLSINSSFY | 6.34 | 2.39 | 3.46 | 0.479 | 0.986 | –
LLYAAEMVEY | 17.1 | 0.236 | 0.00935 | 0.000576 | 0.00393 | –
LMIVARHER | – | – | – | – | – | Kd [1, 9]: 0.116 µM; Kd [2, 9]: 0.00518 µM
LMPILTLTR | – | – | – | – | – | Kd [1, 8]: 15 µM; Kd [2, 8]: 0.723 µM; Kd [3, 8]: 1.72 µM; Kd [4, 8]: 1.13 µM; Kd [5, 8]: 0.102 µM
LSFSNTIQSY | ≥ 70 | ≥ 70 | 4.67 | 1.37 | 7.43 | –
LSKWHTSAR | 0.0153 | 0.00134 | 0.0207 | 3.43 | 5.83 | –
LTDTEYRAR | ≥ 77.7 | ≥ 77.9 | ≥ 42.6 | ≥ 53.9 | ≥ 78 | –
MFAVGLLFRR | – | – | – | – | – | Kd [1, 11]: 0.00166 µM; Kd [2, 11]: 19 µM; Kd [3, 11]: 0.0618 µM
MLPPCYNFLK | – | – | – | – | – | Kd [1, 8]: 0.138 µM; Kd [2, 8]: 0.129 µM; Kd [3, 8]: 0.00261 µM; Kd [4, 8]: 0.00953 µM; Kd [5, 8]: 0.00677 µM

Sequence | Kd [1, 6] [µM] | Kd [2, 6] [µM] | Kd [3, 6] [µM] | Kd [4, 6] [µM] | Kd [5, 6] [µM] | also measured
MVGANASDR | – | – | – | – | – | Kd ([3]; source organism: Dengue virus 1 Singapore/S275/1990): 0.0455 µM
MVLLQMEDK | – | – | – | – | – | Kd [4, 12]: 2.01 µM
NIPTAIQQVR | – | – | – | – | – | Kd [3, 7]: 0.0724 µM
NLEMIDERKY | ≥ 70 | ≥ 24.2 | ≥ 21.4 | ≥ 69.8 | ≥ 70.1 | –
NLTETFRDY | ≥ 77.7 | ≥ 77.9 | ≥ 37.4 | ≥ 77.9 | ≥ 78 | –
NMKQCTNDIY | ≥ 65.7 | ≥ 57.4 | 2.78 | 16.4 | 0.211 | –
NVAYNVVNK | – | – | – | – | – | Kd [1, 8]: 19.3 µM; Kd [2, 8]: 7.17 µM; Kd [3, 8]: 0.0308 µM; Kd [4, 8]: 0.121 µM; Kd [5, 8]: 0.469 µM
NYKERMVTFK | – | – | – | – | – | Kd [1, 9]: 1.4 µM
PFTQHLLNIR | 6.51 | 0.167 | 0.224 | 2.89 | ≥ 22.3 | –
PIYSHTERDK | ≥ 54.6 | 0.977 | 14 | 6.59 | 0.932 | –
PLFHGGEPIK | ≥ 70 | ≥ 70 | ≥ 70.2 | ≥ 28.7 | 18.3 | –
QLRSLTEILK | – | – | – | – | – | Kd ([5]; source organism: Homo sapiens): 0.055 µM
QQLEDIFMR | 4.07 | 1.19 | 5.48 | 13.4 | 2.71 | –
QSVLCVKKFY | ≥ 24.5 | 15.6 | 5.67 | 13.2 | 1.37 | –
TKTAVNMLTH | – | – | – | – | – | Kd [1, 13]: ≥ 35.7 µM; Kd [2, 13]: 7.55 µM; Kd [3, 13]: 0.87 µM
TLLVWHTWQK | – | – | – | – | – | Kd [5, 7]: 0.0455 µM
TTLSRTSKK | – | – | – | – | – | Kd [3, 12]: 0.302 µM; Kd [4, 12]: 0.158 µM; Kd [5, 12]: 0.0143 µM
TTTIFAGHLK | – | – | – | – | – | Kd [3, 11]: 0.00888 µM; Kd [4, 11]: 0.0227 µM
VAAEMEEALR | – | – | – | – | – | Kd [3, 12]: 0.128 µM
VTFKNAHAK | – | – | – | – | – | Kd [3, 7]: 0.0584 µM; Kd [4, 7]: 0.0584 µM; Kd [5, 7]: 0.00794 µM
WSYYCAGLK | – | – | – | – | – | Kd [5, 11]: 0.0122 µM
YVSAITQAER | – | – | – | – | – | Kd [2, 9]: 0.104 µM; Kd [3, 9]: 0.0143 µM
